This series concerns the molecule itself. Nature of the series: bead aggregation assay; EC-N-Cdh coated on Dynabeads (40 μg protein per 40 μl beads, o/n 4 °C); binding buffer 50 mM Tris-HCl pH 7.2, 100 mM NaCl, 10 mM KCl, 0.2% BSA; 2 mM CaCl2 (2 mM EDTA as control); room temperature; aggregate size imaged over 1 h.

B1: recombinant extracellular domain (EC) of N-cadherin (EC-N-Cdh) purified from ΔPOMGnT1 HEK293T cells (domain or fragment, mouse, UniProt P15116 160-724, looked up)
chain: DWVIPPINLPENSRGPFPQELVRIRSDRDKNLSLRYSVTGPGADQPPTGIFIINPISGQLSVTKPLDRELIARFHLRAHAVDINGNQVENPIDIVINVIDMNDNRPEFLHQVWNGSVPEGSKPGTYVMTVTAIDADDPNALNGMLRYRILSQAPSTPSPNMFTINNETGDIITVAAGLDREKVQQYTLIIQATDMEGNPTYGLSNTATAVITVTDVNDNPPEFTAMTFYGEVPENRVDVIVANLTVTDKDQPHTPAWNAAYRISGGDPTGRFAILTDPNSNDGLVTVVKPIDFETNRMFVLTVAAENQVPLAKGIQHPPQSTATVSVTVIDVNENPYFAPNPKIIRQEEGLHAGTMLTTLTAQDPDRYMQQNIRYTKLSDPANWLKIDPVNGQITTIAVLDRESPNVKNNIYNATFLASDNGIPPMSGTGTLQIYLLDINDNAPQVLPQEAETCETPEPNSINITALDYDIDPNAGPFAFDLPLSPVTIKRNWTINRLNGDFAQLNLKIKFLEAGIYEVPIIITDSGNPPKSNISILRVKVCQCDSNGDCTDVDRIVGAGLGTGA
modifications: N-glycans at Asn273, 325, 402, 572, 622, 651, 692: nongalactosylated complex-type N-glycans with a bisecting GlcNAc dominate at all sites except Asn651 and Asn692; galactosylation (-27% on average) and sialylation (-16% on average) decreased against the WT-derived protein; O-mannosylation as in the WT-derived protein
notes: N-cadherin (neural cadherin), mouse, extracellular domain (EC1-EC5) amplified from mouse cDNA; same construct as m1, other host cells; Same polypeptide as m1; It differs only in the N-glycans, because it was made in POMGNT1 knockout cells; See the note of m1 for the limits read from the primers; also called ΔPOMGnT1-derived N-Cdh; N-Cdh from ΔPOMGnT1 cells; source: ΔPOMGnT1 (POMGNT1 knockout) …
With B1, the binding result is “binds”.

B2: recombinant extracellular domain (EC) of N-cadherin (EC-N-Cdh) purified from WT HEK293T cells (domain or fragment, mouse, UniProt P15116 160-724, looked up)
chain: DWVIPPINLPENSRGPFPQELVRIRSDRDKNLSLRYSVTGPGADQPPTGIFIINPISGQLSVTKPLDRELIARFHLRAHAVDINGNQVENPIDIVINVIDMNDNRPEFLHQVWNGSVPEGSKPGTYVMTVTAIDADDPNALNGMLRYRILSQAPSTPSPNMFTINNETGDIITVAAGLDREKVQQYTLIIQATDMEGNPTYGLSNTATAVITVTDVNDNPPEFTAMTFYGEVPENRVDVIVANLTVTDKDQPHTPAWNAAYRISGGDPTGRFAILTDPNSNDGLVTVVKPIDFETNRMFVLTVAAENQVPLAKGIQHPPQSTATVSVTVIDVNENPYFAPNPKIIRQEEGLHAGTMLTTLTAQDPDRYMQQNIRYTKLSDPANWLKIDPVNGQITTIAVLDRESPNVKNNIYNATFLASDNGIPPMSGTGTLQIYLLDINDNAPQVLPQEAETCETPEPNSINITALDYDIDPNAGPFAFDLPLSPVTIKRNWTINRLNGDFAQLNLKIKFLEAGIYEVPIIITDSGNPPKSNISILRVKVCQCDSNGDCTDVDRIVGAGLGTGA
modifications: N-glycans at Asn190 (scarcely), 273, 325, 402, 572, 622, 651, 692 (complex-type, Asn651 high-mannose-type); nonelongated O-linked mannose at 15 sites (Table S6)
notes: N-cadherin (neural cadherin), mouse, extracellular domain (EC1-EC5) amplified from mouse cDNA; Cloned AscI/XhoI into pSecTag2 (Invitrogen); also called WT-derived N-Cdh; N-Cdh extracellular domain; source: HEK293T (WT), stably transfected with pMLHD7, secreted into serum-free medium, purified (HisTrap); not shown: His8, C-terminal, kept
Regarding B2, the binding result is reported as “binds”.

Values taken from PMC7994789, “Glycosyltransferase POMGNT1 deficiency strengthens N-cadherin-mediated cell–cell adhesion” (The Journal of Biological Chemistry, 2021).
